Assay [1] has as its target α-synuclein-YFP fusion protein (recombinant) (UniProt P37840). Put plainly: FRET or BRET. Background: Bioluminescence resonance energy transfer reports proximity on the nanometre scale.
In assay [2] the target is α-synuclein-YFP transgene product in C. elegans (UniProt P37840). In words: FRET or BRET.

For “α-synuclein-YFP fusion protein (recombinant) (from UniProt P37840 1-140) (natural protein)”, in assay [1], the mean YFP fluorescence lifetime in cells, day 4 stood at 1480 ps and the mean YFP fluorescence lifetime, day 4 (oligomeric species) came to 2960 ps.

In turn, “α-synuclein-YFP transgene product in C. elegans (from UniProt P37840 1-140) (natural protein)” had a decrease of mean YFP fluorescence lifetime during ageing in assay [2] of 130 ps.

Source of the values: article PMC5402868.
